The results in this text go back to the domain aggregation screens of Martell et al. (2025).

This data set in a line: soluble fraction after stress (log2 fold change); higher = more stays soluble; pooled small domains, quantitative proteomics. To be noted: stress: 50 degC. In outline: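 Custom libraries of small protein domains were pooled and measured in a high-throughput format, with quantitative proteomics as the read-out. Each library was stressed at 50°C. The value is the log2 fold change in the amount of each protein that stays soluble after stress, used as a measure of aggregation propensity; higher values mean more of the protein stays soluble.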
Regarding “HMVAGHLQTKKGYYYIVLNMRTDTGARKTKWIATGIPEGGKKNLKQAEELLAKTRYTYEDMVI”, the “soluble fraction (log2)” value was -0.792. As for “HMVAPKTEEQQKMFLESIVTKRQAETLIEKYPNIVQDIIDGTDNVDLANLKGIGEHTYNLIKEKVLSNY”, the “soluble fraction (log2)” value worked out at 0.279. Take “HMVAPPILNITTHIFAEEADLRMVMINGVTRREGDSLGENHRLLEITERGLILIFHNKQYTLDV”: the “soluble fraction (log2)” value was -3.68. As for “HMVAQEVPYSTFVMRLDRNEVDAVKIIDGNEIEGTFKSPNGDLVQFKTLIPYQDTELMPLLKQKGVRISGS”, the figure is 0.386. As for “HMVARPVLQIGSTGADVTAIQARLGVSQTGYFGVLTAAAVTNFQRSNGIAASGKVGATTWAKLMQSA”, the figure is -1.14. For the sequence “HMVAVSQEEATKMALERVSGASAQDIRIQLEFDDGIQKYEGDIIYNGREYEFEIDANTGTFLEWSEERA”, the “soluble fraction (log2)” value was -0.489. Take “HMVDETDVPTFTDMTLEEAQNEAKQRNLKLEITESPSDKEKDTILEQDPEPGKTVASGSTVKLTVSNGEE”: the “soluble fraction (log2)” value was -0.14. As for “HMVDFHAAYSILRIAPGASWQEIQAAYEKLNDAWREDRYPQVPFWNEKAAFKRREVEQAYEKLRKFHALRH”, the figure is -0.845; as for “HMVDFVNVVVPVKANYGGEAVVEFLDERLSEFGTEGIYRIELQGETMENPSPDYSQLKAKYHISEIVDRT”, 0.08; as for “HMVDKDFKPLYASLERLDSTSIIEILDSNRIDYRIDQRSGALLVDADQIHQARLSLASAGMPA”, -0.116. As to “HMVDLANIDPIASSIKLNGAEADASFNTLEDRRVSVSGSFEENKNYTMEYTFKDYAGGSVTGTLDFKTLA”, the “soluble fraction (log2)” value was found to be 0.137.

Turning to “HMVDLAPTEEIIKNLPNNSRSLLIPTLQKIQNAYRYLPSPAMELLSEFLNVTRAEIYGVISFYPSLL”, the “soluble fraction (log2)” value is 0.0871. Turning to “HMVDLLDETLIEFYAFANNLIKDLETNSEKYGGMSQFEKELIFNEQITQYQRKLKIDLQDEVG”, the “soluble fraction (log2)” value was -1.54. Regarding “HMVDPRLRSLTPQERRILEHIAEGLTNRQIAEDMFLAEKTVKNYVTSILDKLGMDSRTQAAVYAATHPT”, the “soluble fraction (log2)” value was -0.252.

Take “HMVDSTDLIPLLIKVSREKQGNKKLNWGEWLKIPENIYLKQINENIARKVFEDTNDLIDEAVNYINRKRRN”: the “soluble fraction (log2)” value is -0.602. As for “HMVDTEVFSRLLRKVLAGDVTSAIRILEELIVGGRELSQFVGDFTWYMRNLLLVKTSDNPEEA”, the figure is -0.397; as for “HMVDYYEILGVSPDASRKDIENAWRKKMREAHPDMGGSEDKAQLLNEAHKVLSDESARAEYDASR”, 0.103.

As for “HMVELPDLIGKSKRLAFTQLEISGLKIGKIIYEPDLAKDAVLKILYNGKIVKAGEQLPRFATVDLVLG”, the “soluble fraction (log2)” value is -0.0407. As for “HMVEMIGLQMVGKSGIASTVLRPSGKVRIDGVVYDAVSEDGFIEKGQAVKVLRYETGQVYVEKL”, the figure is -0.254. Turning to “HMVEPIEESISQLSLLLQSLYEDGKSEVSFEELIRSDRSRVSLFLALLFMAQRGNVYLEQEELFGDLRVKN”, the “soluble fraction (log2)” value is 0.0123.

On to “HMVEREYRLEVPPEAEGKRLDQFLVNQPVQLSRSQVQHLIQNGLVLVNAKTRRSSYRVHTGDIIEMQVPA”, for which the “soluble fraction (log2)” value turned out to be 0.327.

In the case of “HMVERQVTVPNLTGLGVADAQRLAQSMELDIEVLGEQESTDARPGAVLQQTPGAGTRAAAGSVVSVLV”, the “soluble fraction (log2)” value was 0.0752. As for “HMVEVPEQLRDLLERSIEDLAELSVRSRNSLQKENIQTLGDLVQRTEEEMLGIENFGKKSLTEIAAFL”, the figure is -0.101; as for “HMVEYFDDENLDAFIGRESDSYTEKEIEQFREILYTMNQKEVADWNRSLTIRGINIPNDLKDEMIMMI”, -0.438; as for “HMVEYIENINLSEKQKFIAHEILKEIRGRAIFLRDVGLDYLNLSRKAGTLSGGEAQRIRLATQIGSA”, 0.226.

For the sequence “HMVFKSAQEGLDFYSKQLNDVDATLGRIRRGEESGNGLYGSNRVKNLEEQRKKLDSFVTAYRNAVNAT”, the “soluble fraction (log2)” value came out at 0.08.

With “HMVFTEEEMLEKIKEYLSTNSYINRRAMETLFNLRQSTALKWLGHFTEIGVLRKEGERNYPVYFLNN”, the “soluble fraction (log2)” value is -0.296. For “HMVGADTISDLISQRGRMIGDKPITNAVIKSGSEFSTINALSKAIASGDARTNDVEGMKPVFR”, the “soluble fraction (log2)” value is -0.0638.

Take “HMVGKGASIILDRVNLPQYLEKFNEDGFDTIESLKNLNEIDLKEMGVKKGHIRVILNYLHEEY”: the “soluble fraction (log2)” value was -0.501.

With “HMVGLKWYDTGNKKPPIGTEYKNTELSEALKGHDRKEFTWKELDVLGVNITDKEQYIVVGENYYTQV”, the “soluble fraction (log2)” value was -0.197. For the sequence “HMVGPAHIGLAVAKDQLPHWERHLTANGVEIEGRMRWDHGGESIYFRDPDAHLLELVTPGIWAN”, the “soluble fraction (log2)” value is -0.0453. Take “HMVGVDMTVKEEVGKEGVTFTDLRPAGKVEIGNDIYDAVSNTGAFIQKGEKVKIIKYQAGQVYVEKLV”: the “soluble fraction (log2)” value is -0.121. As for “HMVIANADVRAKFSKGKDSFVKYYFKEKVLKDGFTEEVKNNIVQALFYLQIVTRIDGESGVLIIDY”, the figure is -0.0492; as for “HMVIDETVLIDLFERLAEDDRPQRVAFRYILALVLLRKRTLQLIGREDEDDGEIWLLRFKGTDGEPIRV”, -0.297; as for “HMVIGKHSGSHTLVNDLAKRGITLDKEESATLLEMVRKAAVGLHRSISSDELYGLYKDMKSGQDPFEDS”, 0.0935.

For “HMVINVKEILERIKLVKGFHTQIEIARFLGVSKGTISNWLARNSVDFPLVISKLDGVDLNWLFTGIGMPQ”, the “soluble fraction (log2)” value is -3.18.

On to “HMVISNDEFEDYLNRATEQLVSELSSGKNPRDAVHDLALTFADQHNKSYDAYQRMADSLEARMHTL”, for which the “soluble fraction (log2)” value is 0.0885. As for “HMVITEQTVTVKYLYEDDTEAAPEHSETHKTGETFEIESPKIDGFTPDYELITGTIANDDLVYIVRYKTTP”, the figure is -0.282; as for “HMVITQVSTTQTDTTFQYHKVKPKETLFSISRLYEVSIDEIKTINPALNSRELMAGELLKLPIK”, -0.0212; as for “HMVKGIVPNLIGKTQDEAKQMAEEYGFSIGTVSEKASDKPKGTVIEQSPKAGAKASGVTSINIVVSDGS”, -0.0342. Take “HMVKKYEKVKEYLLERILDGTYVPDLPIPPERELASLLDVNRMTVRRAVEELMYDGYLIRKKGSGTYLTR”: the “soluble fraction (log2)” value was -1.57. Regarding “HMVKLSVGDIVQFAGGPHYVSSSAAKPASSPTAGPAKVTMIYQGAKHPYHIVHTTSASTVWGWVDADKVVK”, the “soluble fraction (log2)” value was -0.245. On to “HMVKNLRKLREELGLTQQRLAELTGISKSRIYSYESLDREPDIAGLITLADFFSVSIDYLVGK”, for which the “soluble fraction (log2)” value is -1.78. Turning to “HMVKPKIILADIGMITETDVTLAKASQAVLIAFNVKPSKEAKKLAEDENIKISTYNIIYEVLDFVKKSMSG”, the “soluble fraction (log2)” value worked out at 0.12. Regarding “HMVLALRGIVQGGAEPLVILSDGRTSQSLAVGERFLAYEVVEIGRTGVRLRGPEGEIWLAMASF”, the “soluble fraction (log2)” value is -0.322. As for “HMVLANLQAAEQGDLGIKEGEKLTILQTRPDGWWTARNANGETGLVPK”, the “soluble fraction (log2)” value turned out to be 0.173. As for “HMVLFDLSEREKEVLKLLADGNSYKMIASRLEITYFTVNAHLKKIYEKLQVHSASEAVSVALRNSL”, the figure is -1.15; as for “HMVLIQNEDVKDISNYPLLSSVPVFDVFNNKMIIPTFNKDSFNPLIYNFNFNSKRRLIYRVDNTNYLIVIK”, 0.0177; as for “HMVLMPIDALRGSSSSSEMRIAAVKFSPSKGWYFSLQERSDEGSSYYEQKVASDGSVSERVKVR”, -0.561. Consider “HMVLNVMIEEEVHREIIAAISKLPKERRRVVELSMAGFSQEEIAEKMAISVNTVKTIKLRAYRVLRERLKG”, for which the “soluble fraction (log2)” value was -3.18.
